Target: FGFR3-IIIc stably expressed on FDCP cells, P22607
Experiment: cell-based or functional assay

Chain of FGFR3-IIIc stably expressed on FDCP cells, P22607 (P22607 23-806): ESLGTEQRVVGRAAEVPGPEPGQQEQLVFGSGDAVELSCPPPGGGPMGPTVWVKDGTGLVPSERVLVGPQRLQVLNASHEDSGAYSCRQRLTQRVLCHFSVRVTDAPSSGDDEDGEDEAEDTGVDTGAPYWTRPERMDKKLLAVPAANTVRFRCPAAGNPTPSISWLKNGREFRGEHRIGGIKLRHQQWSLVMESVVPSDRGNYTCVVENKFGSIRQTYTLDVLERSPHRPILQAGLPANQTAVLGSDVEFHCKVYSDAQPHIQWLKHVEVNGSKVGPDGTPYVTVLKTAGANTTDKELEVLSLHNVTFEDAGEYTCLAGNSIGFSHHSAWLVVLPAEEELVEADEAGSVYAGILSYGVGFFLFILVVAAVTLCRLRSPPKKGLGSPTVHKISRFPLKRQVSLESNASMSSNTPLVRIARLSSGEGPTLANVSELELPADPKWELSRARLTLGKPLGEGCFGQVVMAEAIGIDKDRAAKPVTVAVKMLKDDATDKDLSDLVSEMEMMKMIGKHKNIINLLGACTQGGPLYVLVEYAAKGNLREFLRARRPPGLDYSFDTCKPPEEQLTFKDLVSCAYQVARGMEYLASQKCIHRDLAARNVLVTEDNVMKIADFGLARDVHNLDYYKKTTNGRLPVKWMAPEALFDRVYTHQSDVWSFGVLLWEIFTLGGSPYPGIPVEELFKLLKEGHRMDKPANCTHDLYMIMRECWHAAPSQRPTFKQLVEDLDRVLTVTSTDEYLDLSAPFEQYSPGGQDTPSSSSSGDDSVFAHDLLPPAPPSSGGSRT

B1: FGF-18 (recombinant wild type, mature form without the signal peptide), O76093 29-207 (ligand)
chain: MENVDFRIHVENQTRARDDVSRKQLRLYQLYSRTSGKHIQVLGRRISARGEDGDKYAQLLVETDTFGSQVRIKGKETEFYLCMNRKGKLVGKPDGTSKECVFIEKVLENNYTALMSAKYSGWYVGFTKKGRPRKGPKTRENQQDVHFMKRYPKGQPELQKPFKYTTVTKRSRRIRPTHPA
modifications: here or on the partner: biotinylated in the immobilized receptor assays (sites not given)
In the case of B1, the EC50 scores of FGF ligands in cell proliferation of FDCPR3 is reported as 15.4 ng/mL.

B2: FGF-18^Δ37, O76093 38-207 (ligand)
chain: MENQTRARDDVSRKQLRLYQLYSRTSGKHIQVLGRRISARGEDGDKYAQLLVETDTFGSQVRIKGKETEFYLCMNRKGKLVGKPDGTSKECVFIEKVLENNYTALMSAKYSGWYVGFTKKGRPRKGPKTRENQQDVHFMKRYPKGQPELQKPFKYTTVTKRSRRIRPTHPA
modifications: here or on the partner: biotinylated in the immobilized receptor assays (sites not given)
In the case of B2, the EC50 scores of FGF ligands in cell proliferation of FDCPR3 is reported as 3.14 ng/mL.

B3: FGF-18^Δ45, O76093 46-207 (ligand)
chain: MDVSRKQLRLYQLYSRTSGKHIQVLGRRISARGEDGDKYAQLLVETDTFGSQVRIKGKETEFYLCMNRKGKLVGKPDGTSKECVFIEKVLENNYTALMSAKYSGWYVGFTKKGRPRKGPKTRENQQDVHFMKRYPKGQPELQKPFKYTTVTKRSRRIRPTHPA
modifications: here or on the partner: biotinylated in the immobilized receptor assays (sites not given)
For B3, the EC50 scores of FGF ligands in cell proliferation of FDCPR3 was 5.44 ng/mL.

B4: FGF-18^Δ51, O76093 52-207 (ligand)
chain: MLRLYQLYSRTSGKHIQVLGRRISARGEDGDKYAQLLVETDTFGSQVRIKGKETEFYLCMNRKGKLVGKPDGTSKECVFIEKVLENNYTALMSAKYSGWYVGFTKKGRPRKGPKTRENQQDVHFMKRYPKGQPELQKPFKYTTVTKRSRRIRPTHPA
modifications: here or on the partner: biotinylated in the immobilized receptor assays (sites not given)
Work on B4 yielded an EC50 scores of FGF ligands in cell proliferation of FDCPR3 of 3.97 ng/mL.

Reference: patent US20130225493A1
